Assay results reported in US20220332804A1 (CSL INNOVATION, published 2022).
Substitutions are numbered along the chain they refer to.

What was measured:
Assay in all cases: SPR, mAb captured, C2 mutant analyte;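 note: Anti-C2 mAbs captured on goat anti-human IgG Biacore CM5 chips, alanine or serine C2 surface mutants flowed over at 37 °C, double-referenced sensorgrams fitted to a 1:1 binding model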
human C2 D431A = target: T1, human C2 D431A (human, UniProt P06681 21-752)
T1 sequence: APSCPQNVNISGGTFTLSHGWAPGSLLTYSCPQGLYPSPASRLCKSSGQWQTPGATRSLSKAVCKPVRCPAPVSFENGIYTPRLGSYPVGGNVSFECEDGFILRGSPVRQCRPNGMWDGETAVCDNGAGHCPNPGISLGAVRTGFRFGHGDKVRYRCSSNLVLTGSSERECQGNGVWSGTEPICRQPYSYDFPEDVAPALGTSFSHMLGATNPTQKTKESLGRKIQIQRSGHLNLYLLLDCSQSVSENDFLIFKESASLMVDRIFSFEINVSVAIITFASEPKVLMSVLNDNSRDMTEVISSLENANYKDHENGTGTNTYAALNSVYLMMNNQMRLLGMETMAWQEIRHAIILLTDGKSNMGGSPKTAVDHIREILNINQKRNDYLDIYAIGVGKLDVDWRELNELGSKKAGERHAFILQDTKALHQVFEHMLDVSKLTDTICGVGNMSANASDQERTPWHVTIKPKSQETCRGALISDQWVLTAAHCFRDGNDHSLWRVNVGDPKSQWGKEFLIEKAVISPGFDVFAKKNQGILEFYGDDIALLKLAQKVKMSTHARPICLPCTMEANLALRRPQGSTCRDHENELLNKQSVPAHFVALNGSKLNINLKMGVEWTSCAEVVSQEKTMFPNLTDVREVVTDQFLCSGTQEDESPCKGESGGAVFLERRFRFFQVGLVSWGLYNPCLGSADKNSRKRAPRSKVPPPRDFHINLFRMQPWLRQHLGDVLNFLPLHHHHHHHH
Method: (§1) Surface plasmon resonance (SPR, Biacore) was used for all binding affinity analyses. In brief, goat anti-human IgG was directly immobilised onto the carboxymethyl dextran surface of CM5 sensorchips to approximately 12,000 RU using standard NHS/EDC chemistry at pH 5. The immobilised antibody surface was pre-conditioned with ten injections of polyclonal human IgG (Privigen 60 s) prepared at 1 μg/mL. Ligands (anti-C2 mAbs) were captured at the beginning of each cycle as described below. An adjacent spot or flow cell in which only Polyclonal IgG was capture was used as a reference surface. The goat anti-human IgG Fc antibody surface was regenerate in 100 mM H3PO4, injected for 45 seconds at the end of each cycle. Experiments were performed at 37° C. and the flow rate of each experiment was kept constant at 30 μL/min.
(§2) Sensogram data was double-referenced against a reference anti-IgG surface (i.e. minus anti-C2 mAb) and blank buffer injections obtained within each experiment. The binding data was fit to 1:1 (kinetic or steady-state) model using local Rmax and null refraction index (RI=0) when appropriate. Buffers and solutions were filtered (0.22 μm) prior to use.

human C2 N471A = target: T2, human C2 N471A (human, UniProt P06681 21-752)
T2 sequence: T1 sequence with A411D, N451A
Method: as §1, §2

human C2 M452A = target: T3, human C2 M452A (human, UniProt P06681 21-752)
T3 sequence: T1 sequence with A411D, M432A
Method: as §1, §2

human C2 N467A = target: T4, human C2 N467A (human, UniProt P06681 21-752)
T4 sequence: T1 sequence with A411D, N447A
Method: as §1, §2

Kd (human C2 D431A): 71.8 nM | Kd (human C2 N471A): 32.8 nM | Kd (human C2 M452A): 21.3 nM | Kd (human C2 N467A): 77.2 nM
B1: RF16-214 (antibody, V domains shown)
VH: EVQLLESGGGLVQPGGSLRLSCAASGFTFSWYQMMWVRQAPGKGLEWVSRIYPSGGGTAYADSVKGRFTISRDNSKNTLYLQMNSLRAEDTAVYYCARDAGYGDNWGQGTLVTVSS
VL: QSALTQPPSVSVSPGQTASITCSGDKLGEKYASWYQQKAGQSPVMVIYQDRKRPSGIPERFSGSNSGNTATLTISGTQAMDEADYYCQAWDTRAVVFGGGTKLTVLG
